According to paper PMC9501438 (International Journal of Molecular Sciences, 2022):
Each block holds one binder with its values, some of them ahead of it.

Key:
UBCH5B [1] = molecular target: T1, UBCH5B (UniProt P62837 1-147); experiment: ITC; Microcal PEAQ ITC, 25 °C; 75-200 uM Arkadia polypeptide in the cell, 0.75-2 mM UBCH5B from the syringe in 2 uL injections; single site-binding model; conditions: both partners purified
T1 construct: UBCH5B, E2 ubiquitin-conjugating enzyme, wild type; 15N-labelled in the NMR titrations; also called E2 enzyme UBCH5B; wt UBCH5B

UBCH5B [2] = molecular target: T1, UBCH5B; experiment: as above; conditions: both partners purified; remark: listed apart in the source

Kd (UBCH5B [1]): 32 µM
B1: Arkadia RING 68 aa (domain or fragment)
chain: KQDGEEGTEEDTEEKCTICLSILEEGEDVRRLPCMHLFHQVCVDQWLITNKKCPICRVDIEAQLPSES
notes: Cloned into pGEX-4T-1; also called Ark RING 68aa; Ark 68 aa; source: E. coli, purified (GST-trap, thrombin cleavage, Superdex 75 SEC); not shown: GST, N-terminal, cleaved

Kd (UBCH5B [1]): 2.7 µM
B2: Arkadia 119 aa polypeptide (domain or fragment)
chain: FRGNFEELIHLEERLGNVNRGASQGTIERCTYPHKYKKVTTDWFSQRKLHCKQDGEEGTEEDTEEKCTICLSILEEGEDVRRLPCMHLFHQVCVDQWLITNKKCPICRVDIEAQLPSES
notes: Cloned into pGEX-4T-1; source: E. coli, purified (GST-trap, thrombin cleavage, Superdex 75 SEC); not shown: GST, N-terminal, cleaved

Kd (UBCH5B [2]): 23 µM
B3: Arkadia 90 aa polypeptide (domain or fragment)
chain: CTYPHKYKKVTTDWFSQRKLHCKQDGEEGTEEDTEEKCTICLSILEEGEDVRRLPCMHLFHQVCVDQWLITNKKCPICRVDIEAQLPSES
notes: Arkadia (RNF111), human, isoform 1, residues 905-994: NLS, the segment unique to isoform 1 and the RING-H2 domain; Cloned into pGEX-4T-1; also called Ark 90 aa; source: E. coli, purified (GST-trap, thrombin cleavage, Superdex 75 SEC); not shown: GST, N-terminal, cleaved
